No end group written: not given here.
Columns and labels:
Assay in all cases: FP
[1] = target: (DLS)6 binder
[2] = target: (DLP)6 binder
[3] = target: (KLP)6 binder

tetramethylrhodamine-KLPKLPKLPKLPKLPKLP [(KLP)6]
Kd [1]: ~1800 nM | Kd [2]: ~1000 nM

tetramethylrhodamine-DLPDLPDLPDLPDLPDLP [(DLP)6]
Kd [3]: 4.6 nM | Kd [1]: 0.7 nM

From PMC11288887 (2024)
